# B1: Lactococcus lactis 2-ketoacid decarboxylase Kivd, wild type (Lactococcus lactis subsp. lactis) (protein)
# chain: MYTVGDYLLDRLHELGIEEIFGVPGDYNLQFLDQIISHKDMKWVGNANELNASYMADGYARTKKAAAFLTTFGVGELSAVNGLAGSYAENLPVVEIVGSPTSKVQNEGKFVHHTLADGDFKHFMKMHEPVTAARTLLTAENATVEIDRVLSALLKERKPVYINLPVDVAAAKAEKPSLPLKKENSTSNTSDQEILNKIQESLKNAKKPIVITGHEIISFGLEKTVTQFISKTKLPITTLNFGKSSVDEALPSFLGIYNGTLSEPNLKEFVESADFILMLGVKLTDSSTGAFTHHLNENKMISLNIDEGKIFNERIQNFDFESLISSLLDLSEIEYKGKYIDKKQEDFVPSNALLSQDRLWQAVENLTQSNETIVAEQGTSFFGASSIFLKSKSHFIGQPLWGSIGYTFPAALGSQIADKESRHLLFIGDGSLQLTVQELGLAIREKINPICFIINNDGYTVEREIHGPNQSYNDIPMWNYSKLPESFGATEDRVVSKIVRTENEFVSVMKEAQADPNRMYWIELILAKEGAPKVLKKMGKLFAEQNKS
# notes: also expressed from pBDO-5 in E. coli fermentation (A5)
# B2: Lactococcus lactis 2-ketoacid decarboxylase Kivd variant V461I (Lactococcus lactis subsp. lactis; V461I) (protein)
# chain: MYTVGDYLLDRLHELGIEEIFGVPGDYNLQFLDQIISHKDMKWVGNANELNASYMADGYARTKKAAAFLTTFGVGELSAVNGLAGSYAENLPVVEIVGSPTSKVQNEGKFVHHTLADGDFKHFMKMHEPVTAARTLLTAENATVEIDRVLSALLKERKPVYINLPVDVAAAKAEKPSLPLKKENSTSNTSDQEILNKIQESLKNAKKPIVITGHEIISFGLEKTVTQFISKTKLPITTLNFGKSSVDEALPSFLGIYNGTLSEPNLKEFVESADFILMLGVKLTDSSTGAFTHHLNENKMISLNIDEGKIFNERIQNFDFESLISSLLDLSEIEYKGKYIDKKQEDFVPSNALLSQDRLWQAVENLTQSNETIVAEQGTSFFGASSIFLKSKSHFIGQPLWGSIGYTFPAALGSQIADKESRHLLFIGDGSLQLTVQELGLAIREKINPICFIINNDGYTIEREIHGPNQSYNDIPMWNYSKLPESFGATEDRVVSKIVRTENEFVSVMKEAQADPNRMYWIELILAKEGAPKVLKKMGKLFAEQNKS
# notes: coupled with AraC/AraD/YqhD
# Columns and labels:
# [1] = substrate: O=CCCC(=O)C(=O)O; assay: 2-ketoacid decarboxylase Kivd wild type, coupled assay, NADPH oxidation at 340 nm; type: biochemical; settings: other: coupled assay, substrate from 0.1-10 mM L-arabonate, 1 mM NADPH, 0.5 mM ThDP, pH 7.5, 10 nM Kivd, 30.0 °C
# Method: (§1) 2-Ketoacid decarboxylase (Kivd) and alcohol dehydrogenase (YqhD): The decarboxylase activity of Kivd was measured by a coupled enzymatic assay with AraC, AraD, and YqhD (Zhang et al., 2011. ChemSusChem 4:1068-1070). Excess AraC, AraD, and YqhD was used and the oxidation of NADPH was monitored at 340 nm. The assay mixture contained 1 mM NADPH, 1 μM AraC, 1 μM AraD, and 100 nM YqhD and 0.1-10 mM L-arabonate in assay buffer (100 mM Tris-HCl buffer, pH 7.5, 5 mM MgSO4, 0.5 mM ThDP) with a total volume of 0.1 ml. The mixture was incubated at 30° C. for one hour and 10 nM Kivd was added. The dehydrogenase activity of YqhD was assayed according to NADPH initial consumption rates in a coupled assay. The assay mixture contained 1 mM NADPH, 100 nM Kivd, 1 μM AraC, 1 μM AraD, and 0.1-10 mM L-arabonate in 100 μl of 100 mM Tris-HCl buffer (pH 7.5) with 5 mM MgSO4. The mixture was first incubated at 30° C. for one hour. Afterwards, 10 nM YqhD was added and the NADPH consumption rate was monitored.
# [2] = substrate: O=C(O)C(=O)C[C@H](O)CO; assay: as above; type: biochemical; settings: other: wild type; BTO substrate; pH 7.5; 30.0 °C
# Method: as §1
# [3] = substrate: O=CCCC(=O)C(=O)O; assay: 2-ketoacid decarboxylase Kivd V461I mutant, coupled assay, NADPH oxidation at 340 nm; type: biochemical, Lactococcus lactis; settings: other: V461I mutant, coupled assay, pH 7.5, 30.0 °C
# Method: as §1
# [4] = substrate: O=C(O)C(=O)C[C@H](O)CO; assay: as above; type: biochemical, Lactococcus lactis; settings: other: V461I mutant; BTO substrate; pH 7.5; 30.0 °C
# Method: as §1
Protein,Km [1] [mM],kcat [1] [s⁻¹],kcat/Km [2] [M⁻¹ s⁻¹],kcat/Km [3] [M⁻¹ s⁻¹],kcat/Km [4] [M⁻¹ s⁻¹]
B1,4.8,4.8,7700,–,–
B2,–,–,–,2500,500
